In general, Kd refers to the constant that tells how readily two partners part at equilibrium. Low values mean higher affinity, high ones lower affinity.

Sequences and labels used below:
B1: S8-ATX2F10 (antibody, V domains shown)
VH: EVQLVESGGDLVKSGGSLRLSCAASGFTFSDAWMSWVRQAPGKGLEWVGRIQSKTDGGTTDYVAPVKGRFTISRDDSKDTLYLHMNSLTTEDTAVYYCTTDLYYYGSGSYFLGQGTLVTVSS
VL: DIQMTQSPSSLSASVGDRVTITCRASQNIITYLNWYQQKPGKAPKLLIYAASSLQSGVPSRFSGSGSGTDFTLTISSLQPEDFAIYHCQQSYNVPTTFGQGTKLEIK
B2: S8-ATX2A3 (antibody, V domains shown)
VH: QVQLQESGPGLVKPSETLSLTCTVSGASISGYYWNWIRQPPGKGLEWIGYIHYSGTTNYNPSLKSRITISLDTSENQFSLRLSSVTAADTAVYYCARDWYTGYDWEGFDYWGQGTLVTVSS
VL: QSVLTQPPSVSGAPGQRVSFSCTGTSSNIGTGFDVHWYRQLPGTAPKVLIYNNNNRPSGVPDRFSASKSGTSASLAITGLQAEDEADYYCQSYDSSLSGSVFGGGTRLTVL
B3: S8-ATX1H4 (antibody, V domains shown)
VH: QVQLVQSGTEVKYPGASVKVSCKASGYTFIDYGISWVRQAPGQGLEWMGWISAYNGNTDYAQKLQGRVTMTTDTSTSTAYMDLRSLRSDDTAVYYCAREGEGYCTYGVCPSFDYWGQGTLVTVSS
VL: EIVLTQSPGTLSLSPGERATLSCRASQSVSSSYLAWYQQKPGQAPRLLIYGASTRGTGIPDRFSGSGSGTDFTLTISRLEPEDFALYYCQQYGSSPYTFGQGTKLEIK
B4: S8-ATX1E1 (antibody, V domains shown)
VH: EVQLVESGGGLVQPGRSLRLSCAASGFMFDDYVMHWVRQAPGKGLEWVSGINWNSDNIGYADSVKGRFTISRDNAKNSLFLQMNSLRVEDTALYYCAKDIDAAAFDYWGQGTLVTVSS
VL: DIVMTQSPLSLPVTPGEPASISCRSSQSLLHSNGYSYLAWYLQKPGQSPQLLIYLVSNRASGVPDRFTGSGSGTDFTLKISRVEAEDVGVYYCMQALQTPWTFGQGTKVEIK
B5: S8-ATX1B6 (antibody, V domains shown)
VH: QVQLVESGGGVVLPGRSLRLSCAASGFTFNIYGMHWVRQAPGKGLEWVAVISYDGNNKEYADSVKGRFTISRDSSRNTLYLQMNSLRAEDTAVYYCAKRGYGSSSLEFWGQGTLVTVSS
VL: DIQMTQSPSSLSASVGDRVTITCRSSQDIRNDLGWYQQKPGKAPKRLIYASSNLQSGVPSRFSGSGSGTEFTLTISSLQPDDFATYYCLQHNTYPYTFGQGTKLEIK
B6: S8-ATX1B4 (antibody, V domains shown)
VH: QVQLVESGGGVVQPGRSLRLSCAASGFTFSIYGMHWVRQAPGKGLEWVAVISYDGNNKDYTDSVKGRFTISRDNSKNTLYLQMNSLTAEDTAVYYCAKRGYGSSSLEFWGQGTLVTVSS
VL: DIQMTQSPSSLSASVGDRVTITCRASQDIRNDLGWYQQKPGKAPKRLIYATSSLQSGVPSRFSGSRSGAEFTLTVSSLQPEDFATYYCLQHNTYPYTFGQGTKLEIK
B7: S8-ATX1E4 (antibody, V domains shown)
VH: QVQLVQSGSELKKPGASVKVSCKTSGYTFTSYAMNWVRQAPGQGLEWMGWINTNTGNPTYAQGFRGRFVFSLDTSVSTAYLQISSLKAEDTAVYYCARDKYSSSWYWFDSWGQGTLVTVSS
VL: DIQMTQSPSSLSASVGDRVTITCRPSQNISSYLNWYQQKPGKAPKLLIYAASSLRSGVPSRFSGSGSGTDFTLTVSSLQPEDFANYYCQQSYSTPYTFGRGTKLEIK
B8: S8-ATX1E2 (antibody, V domains shown)
VH: EVQLVESGGGLVKPGESLRLSCAASGFTFSNAWMSWVRQAPGKGLEWVGRDGGARDYAAPVKGRFTISRDDSKNTLYLQMNTLKTEDTAVYYCTKGAFFFDYWGQGTLVTVSS
VL: EIVLTQSPGTLSLSPGERATLSCRASQSVISGYLAWYQQKPGQAPRLLIYGASRRATGITDRFSGSGSGTDFTLIISRLEPEDSAVYYCQQYDSSPRTFGQGTKVEIK
B9: S8-ATX2G9 (antibody, V domains shown)
VH: EVQLVESGGGVVRPGGSLRLSCAASGFTFDDYGMSWVRQAPGKGLEWVSGINWNGGSTGYADSVKGRFSISRDNAKNSLYLQMNSLRAEDTALYYCAREGITILRGVIIEDWYFDLWGRGTLVIVSS
VL: not shown
B10: S8-ATX2B11 (antibody, V domains shown)
VH: EVQLVESGGGVVRPGGSLRLSCAASGFTLDDYGMSWVRQAPGKGLEWVSGINWNGATTDYADSVKGRFSISRDNAKNSVYLQMNSLRAEDTALYYCAREGITMVRGVIIEDWYFDLWGRGTLVTVSS
VL: not shown

The target in the assay is full-length human Siglec-8 (Siglec-8^FL) (human, UniProt Q9NYZ4 17-499). Briefly: BLI.
full-length human Siglec-8 (Siglec-8^FL), sequence (Q9NYZ4 17-499): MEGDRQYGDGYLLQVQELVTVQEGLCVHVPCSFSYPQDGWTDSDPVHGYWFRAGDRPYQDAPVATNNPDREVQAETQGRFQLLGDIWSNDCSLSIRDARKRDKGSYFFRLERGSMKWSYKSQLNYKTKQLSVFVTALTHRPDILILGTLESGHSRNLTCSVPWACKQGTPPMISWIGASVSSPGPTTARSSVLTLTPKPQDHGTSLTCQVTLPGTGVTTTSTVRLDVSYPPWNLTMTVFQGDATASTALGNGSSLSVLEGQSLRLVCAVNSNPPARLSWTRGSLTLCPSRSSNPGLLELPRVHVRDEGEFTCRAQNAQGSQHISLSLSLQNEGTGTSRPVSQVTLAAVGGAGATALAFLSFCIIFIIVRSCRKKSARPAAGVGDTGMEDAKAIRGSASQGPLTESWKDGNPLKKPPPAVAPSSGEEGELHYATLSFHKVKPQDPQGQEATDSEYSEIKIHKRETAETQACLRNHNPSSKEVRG
The molecule B1 showed a Kd of 100 nM.
In the case of B2, the Kd is below 0.001 nM.
Molecule B3 showed a Kd below 0.001 nM.
Then B4, with 0.589 nM.
Then B5, with 0.00219 nM.
Regarding B6, the Kd is 0.502 nM.
Regarding B7, the Kd worked out at 0.917 nM.
Regarding B8, binding was characterised by a dissociation constant (Kd) of 0.655 nM.
In turn, B9 gave a Kd of 0.00413 nM.
B10 returned a Kd of 10 nM.

These data come from US20250034245A1 (published 2025).
